The assay deals with collagen IV/laminin (2% reduced growth factor Matrigel, Corning #354230). Kind of assay: plate binding assay, biotinylated molecule on Matrigel-coated plate, streptavidin-HRP, absorbance 450 nm.

Our source for the binding capacity values is patent US20230346960A1.

No end group written: not given here.

B1: DS-SILY4 (biotinylated; dermatan sulfate backbone with 4 SILY peptide substitutions per DS) (peptide)
peptide: RRANAALKAGELYKSILYGSG
modifications: not fully specified (C-terminus); also: about 4 peptides per dermatan sulfate, one equivalent N-terminally biotinylated SILY-hydrazide also conjugated
Molecule B1 came in with a binding capacity of 1.1 AU.
